From patent publication US20130011412A1 (Genentech, published 2013)
Changes are numbered by the printed parent chain.

Legend:
[1] = target: T1, recombinant human lymphotoxin-α homotrimer (human LTα3) (human, UniProt P01374 35-205); assay: plate ELISA, IgG
T1 construct: Coated on plates in the ELISAs; also called rhLTα; lymphotoxin-α3 trimer
T1 sequence (looked up): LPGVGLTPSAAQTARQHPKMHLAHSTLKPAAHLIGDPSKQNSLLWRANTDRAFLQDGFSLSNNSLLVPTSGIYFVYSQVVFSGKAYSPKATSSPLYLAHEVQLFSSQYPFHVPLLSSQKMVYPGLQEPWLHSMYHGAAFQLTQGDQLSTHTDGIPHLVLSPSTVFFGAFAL

[2] = target: T1, recombinant human lymphotoxin-α …; assay: plate ELISA on coated human LTα
[3] = target: T1, recombinant human lymphotoxin-α …; assay: phage competitive ELISA: rhLTα in solution competes with plate-coated LTα
Protocol: (§1) For the first round, phage were captured for 2 hours against 2 μg/ml plate-coated LTα at ambient temperature. The second and third rounds of selection were performed at ambient temperature by capturing phage for 30 minutes with 2 nM biotinylated LTα in solution phase, followed by capture on neutravidin-coated plates. The highest affinity clone was identified using a competitive ELISA. Constant concentrations of phage clones (normalized by solid-phase LTα binding OD) were incubated with increasing concentrations of LTα (0-50 nM) in solution before capture on a plate coated with 2 μg/ml LTα.

[4] = target: T1, recombinant human lymphotoxin-α …; assay: phage competitive ELISA, LTα (0-50 nM) in solution against plate-coated LTα
Protocol: as §1

[5] = target: T2, human cell-surface LTαβ complex (LTα complexed with LTβ on the cell surface) (human, UniProt P01374 35-205; Q06643 1-244); assay: FACS titration on human Th2 cells, Alexa Fluor 647 conjugates
T2 construct: whole, on cells; also called human LTαβ
T2 sequence (looked up) 1: T1 sequence (looked up)
T2 sequence (looked up) 2: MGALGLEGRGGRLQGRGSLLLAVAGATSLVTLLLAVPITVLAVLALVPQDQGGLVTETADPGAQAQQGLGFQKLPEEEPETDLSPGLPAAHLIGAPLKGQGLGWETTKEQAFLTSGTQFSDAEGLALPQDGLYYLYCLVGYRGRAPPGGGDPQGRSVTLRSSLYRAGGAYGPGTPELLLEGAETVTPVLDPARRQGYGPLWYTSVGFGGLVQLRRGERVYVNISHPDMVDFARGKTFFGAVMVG
Protocol: Cells were washed, aspirated, and re-suspended in PBS with 2% FBS. Cells were analyzed on a FACSCALIBUR™ (dual laser) using […]™ software, and results analyzed on a FLOWJO™ analyzer (Treestar).

[6] = target: T3, human LTα1β2 heterotrimer (R&D Systems) (human, UniProt P01374 35-205; Q06643 49-244, limits assumed); assay: ELISA on coated LTα1β2
T3 construct: also called LTαβ
T3 sequence (looked up) 1: T1 sequence (looked up)
T3 sequence (looked up) 2: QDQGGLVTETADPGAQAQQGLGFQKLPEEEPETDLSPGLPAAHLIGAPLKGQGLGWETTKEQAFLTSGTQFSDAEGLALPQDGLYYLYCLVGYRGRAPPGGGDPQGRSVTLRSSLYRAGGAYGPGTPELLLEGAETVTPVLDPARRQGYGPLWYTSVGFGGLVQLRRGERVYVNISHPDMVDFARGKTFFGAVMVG

[7] = target: T1, recombinant human lymphotoxin-α …; assay: cell-based or functional assay

B1: humanized 2C8.v16 (antibody, human IgG1, V domains shown)
VH: EVQLVESGGGLVQPGGSLRLSCAASGYTFTSYVIHWVRQAPGKGLEWVGYNNPYNDGTNYNEKFKGRFTISSDKSKNTAYLQMNSLRAEDTAVYYCSRPTMLPWFAYWGQGTLVTVSS
VL: DIQMTQSPSSLSASVGDRVTITCRASQAVSSAVAWYQQKPGKAPKLLIYSASHRYTGVPSRFSGSGSGTDFTLTISSLQPEDFATYYCQESYSTPWTFGQGTKVEIKR
notes: Heavy chain: v12 variable domain on human IgG1; copies: 2 + 2
[1]
  fold improvement in binding compared to 2C8.v2: 2 fold
[2]
  ELISA IC50 ratio: 0.6 ratio

B2: phage-displayed 2C8 Fab clone A8 (Fab, V domains shown)
VH: B1 VH with F68A
VL: B1 VL with L47Q
notes: All phagemids kept the wild-type CDR-H3; also called 2C8 clone A8
[3]
  IC50: 320 pM
[4]
  fold improvement in competition over wild-type 2C8.v2: 10 fold

B3: human TNFRII.huIgG1 (ENBREL®) (Fc fusion, UniProt P20333 23-257, looked up)
chain: LPAQVAFTPYAPEPGSTCRLREYYDQTAQMCCSKCSPGQHAKVFCTKTSDTVCDSCEDSTYTQLWNWVPECLSCGSRCSSDQVETQACTREQNRICTCRPGWYCALSKQEGCRLCAPLRKCRPGFGVARPGTETSDVVCKPCAPGTFSNTTSSTDICRPHQICNVVAIPGNASMDAVCTSTSPTRSMAPGAVHLPQPVSTRSQHTQPTPEPSTAPSTSFLLPMGPSPPAEGSTGD
notes: extracellular domain; also called TNFRII.Fc; etanercept; not shown: Fc portion of a human IgG1
[5]
  binding result: no binding (tested: 100 ug/ml)
[6]
  binding result: no binding
[7]
  IC50, blocking of human LT-induced cytotoxicity: 830 pM
